Measurements: paper doi:10.1101/2025.01.11.632576 (bioRxiv, 2025)

B1: HER2 VHH (2Rs15d) Y28K (VHH)
VHH: QVQLQESGGGSVQAGGSLKLTCAASGKIFNSCGMGWYRQSPGRERELVSRISGDGDTWHKESVKGRFTISQDNVKKTLYLQMNSLKPEDTAVYFCAVCYNLETYWGQGTQVTVSS
B2: HER2 VHH (2Rs15d) Y28A (VHH)
VHH: QVQLQESGGGSVQAGGSLKLTCAASGAIFNSCGMGWYRQSPGRERELVSRISGDGDTWHKESVKGRFTISQDNVKKTLYLQMNSLKPEDTAVYFCAVCYNLETYWGQGTQVTVSS
B3: HER2 VHH (2Rs15d) G54A (VHH)
VHH: QVQLQESGGGSVQAGGSLKLTCAASGYIFNSCGMGWYRQSPGRERELVSRISADGDTWHKESVKGRFTISQDNVKKTLYLQMNSLKPEDTAVYFCAVCYNLETYWGQGTQVTVSS
B4: HER2 VHH (2Rs15d) T58D (VHH)
VHH: QVQLQESGGGSVQAGGSLKLTCAASGYIFNSCGMGWYRQSPGRERELVSRISGDGDDWHKESVKGRFTISQDNVKKTLYLQMNSLKPEDTAVYFCAVCYNLETYWGQGTQVTVSS
B5: HER2 VHH (2Rs15d) N101D (VHH)
VHH: QVQLQESGGGSVQAGGSLKLTCAASGYIFNSCGMGWYRQSPGRERELVSRISGDGDTWHKESVKGRFTISQDNVKKTLYLQMNSLKPEDTAVYFCAVCYDLETYWGQGTQVTVSS
B6: HER2 VHH (2Rs15d) T58K (VHH)
VHH: QVQLQESGGGSVQAGGSLKLTCAASGYIFNSCGMGWYRQSPGRERELVSRISGDGDKWHKESVKGRFTISQDNVKKTLYLQMNSLKPEDTAVYFCAVCYNLETYWGQGTQVTVSS
B7: HER2 VHH (2Rs15d) T58A (VHH)
VHH: QVQLQESGGGSVQAGGSLKLTCAASGYIFNSCGMGWYRQSPGRERELVSRISGDGDAWHKESVKGRFTISQDNVKKTLYLQMNSLKPEDTAVYFCAVCYNLETYWGQGTQVTVSS
B8: HER2 VHH (2Rs15d) S32K (VHH)
VHH: QVQLQESGGGSVQAGGSLKLTCAASGYIFNKCGMGWYRQSPGRERELVSRISGDGDTWHKESVKGRFTISQDNVKKTLYLQMNSLKPEDTAVYFCAVCYNLETYWGQGTQVTVSS
B9: HER2 VHH (2Rs15d) G54D (VHH)
VHH: QVQLQESGGGSVQAGGSLKLTCAASGYIFNSCGMGWYRQSPGRERELVSRISDDGDTWHKESVKGRFTISQDNVKKTLYLQMNSLKPEDTAVYFCAVCYNLETYWGQGTQVTVSS
B10: HER2 VHH (2Rs15d) G54S (VHH)
VHH: QVQLQESGGGSVQAGGSLKLTCAASGYIFNSCGMGWYRQSPGRERELVSRISSDGDTWHKESVKGRFTISQDNVKKTLYLQMNSLKPEDTAVYFCAVCYNLETYWGQGTQVTVSS
B11: HER2 VHH (2Rs15d) Y28D (VHH)
VHH: QVQLQESGGGSVQAGGSLKLTCAASGDIFNSCGMGWYRQSPGRERELVSRISGDGDTWHKESVKGRFTISQDNVKKTLYLQMNSLKPEDTAVYFCAVCYNLETYWGQGTQVTVSS
B12: HER2 VHH (2Rs15d) D55K (VHH)
VHH: QVQLQESGGGSVQAGGSLKLTCAASGYIFNSCGMGWYRQSPGRERELVSRISGKGDTWHKESVKGRFTISQDNVKKTLYLQMNSLKPEDTAVYFCAVCYNLETYWGQGTQVTVSS
B13: HER2 VHH (2Rs15d) T58S (VHH)
VHH: QVQLQESGGGSVQAGGSLKLTCAASGYIFNSCGMGWYRQSPGRERELVSRISGDGDSWHKESVKGRFTISQDNVKKTLYLQMNSLKPEDTAVYFCAVCYNLETYWGQGTQVTVSS
B14: HER2 VHH (2Rs15d) Y28S (VHH)
VHH: QVQLQESGGGSVQAGGSLKLTCAASGSIFNSCGMGWYRQSPGRERELVSRISGDGDTWHKESVKGRFTISQDNVKKTLYLQMNSLKPEDTAVYFCAVCYNLETYWGQGTQVTVSS
B15: HER2 VHH (2Rs15d) G54K (VHH)
VHH: QVQLQESGGGSVQAGGSLKLTCAASGYIFNSCGMGWYRQSPGRERELVSRISKDGDTWHKESVKGRFTISQDNVKKTLYLQMNSLKPEDTAVYFCAVCYNLETYWGQGTQVTVSS

Each molecule was assayed against recombinant human HER2 (AA 23-653) (Homo sapiens, UniProt P04626) (assay: SPR).
B1: binds. B2: binds. B3: binds. B4: binds. B5: binds. B6: binds. B7: binds. Work on B8 yielded a Kd of 31 nM. B9: binds. B10: binds. B11: binds. B12: binds. B13: binds. B14: binds. B15: binds.

Each molecule was assayed against HER2 VHH (2Rs15d) L102S (assay: SPR).
Molecule “recombinant human HER2 (AA 23-653) (from UniProt P04626 23-653) (domain or fragment)” has a Kd of 3.6 nM.

The molecules below were run against HER2 VHH (2Rs15d) I29D (assay: SPR).
Work on “recombinant human HER2 (AA 23-653) (from UniProt P04626 23-653) (domain or fragment)” yielded a Kd of 3.1 nM.

These molecules were tested against HER2 VHH (2Rs15d) L102A (assay: SPR).
“recombinant human HER2 (AA 23-653) (from UniProt P04626 23-653) (domain or fragment)” showed a Kd of 3.1 nM.
